# In the domain aggregation screens of Martell et al. (2025):
# Assay: soluble fraction after stress (log2 fold change); higher = more stays soluble; pooled small domains, quantitative proteomics
# Settings: stress: pH 4
# Outline: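 Aggregation propensity here comes from the fold change in the soluble amount of each small protein domain after acid stress, measured in pooled custom libraries by high-throughput quantitative proteomics. The acid stress was pH 4. On the log2 scale, higher values mean more of the domain stayed soluble.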
row,Sequence,soluble fraction (log2)
1,HMRHTRQRQAVLDALVRSGQALSPQDLLGQAKSAVPSLNLSTVYRQIKGLQDAGQIVRVELPGQPPRFEM,-0.0347
2,HMRIAQYRQIENDLLEQINLGYYKKGDLIPTELELSATYHVSRVTVRKATDNLVAKGILQRVAGVGTFVSR,0.0958
3,HMRIATVTPIEEDQASDRVVAVYNDIKSTKQIDFIPNFWKVIAVNPDLLEQVWGQLKTLMHPEEVG,-0.948
4,HMRIEDTMDYINKIKEKLKNNGGVITSKEFTRSNIPTIYLTRMVETGELIRIDRGIYINSSG,-0.462
5,HMRIEYYDDEELDRYIGTPASGYREAAVEEFREILLTLDADDVPGWVRSLQLRGIEFPESLRPELYL,-1.5
6,HMRIFDDNMIFPTEAEISAALKRLVMDLPKVGFLQGHGERAVDNVGERAYSMFTHANNFRYALINQGFVT,-0.0562
7,HMRIHKQLGDRIRNLRLSSGMNQEELAFKSGISAAHLGQIERGLKSPTISTIQKIAKALNVTLPILF,0.311
8,HMRININNASARQIADALPGVGLKTARDIKDFQTTLSGERYTRLDQLHSIKRVDWDEIFKADLVRV,0.158
9,HMRISMRDQVYEIIKNRILSREYSLGEPINIVHLSKELGISNTPIREALSQLETERLITINSNQKYHVT,-0.0135
10,HMRKDEFLQTLRRALNGNVPPRVVEENVRYYDGYISDEVRKGRSEEEVIEEIGDPRLIARTIEDTT,-0.187
11,HMRKDRKVLMERGRHIFNDLLEKEGIVATNQLMTKLLASHHLRNRDELYLMLANDDISLSSKEIKDLS,0.22
12,HMRKEDYLPIGSVINMDDRKFRVDSVDFDKDKVSLQDMALADARMPIFWEEPLTVVRELYEQQDE,-0.899
13,HMRKEPSYASDIITRLKEADLIVVEGTLYPLLTRLKKDGLLSYEWRESTQGPPRKYYALTLDGET,-0.895
14,HMRKIGDVLRLHAGGLSKRRIAVSLNIGRTAVGDYISRARRAGLGWPLPEDLSEEALERLLFPPP,0.151
15,HMRKIVEGVLTKKEGKWYLLTDIETYKISDASAEYHKAELNDRASALIPAQNPKVPFASLEKVFN,0.186
16,HMRKLHFVMSEIYEDHPWIGSKLQDVFLPKDIRVVLVERDSKQFMPNGQTLFELGDRLTLSALHYDPA,-2.22
17,HMRKLTDRQRQILDLIKTIIAETGAPPTRAEISTALGFKSANAAQEHLQALAQKGMIDLVSGASRGIRLRG,-0.194
18,HMRKMELTEAAEKLIEEPDVVSAYRNMQQIFQQWREIGPVPREQRDEVWSHFKDLMTQVNRRHQAHFEN,-0.258
19,HMRKPLDQSWVPDDDAMKILTNSGIEKEFIKNEIPEFILYWSDKGEISDSWNTKFISQIRRQWAKNQ,-0.465
20,HMRKSAVSSTLTSIEGIGATRAKALLKHFKTVAAVSEADLKELEDAPGMTRPSALRVYEYFHGK,0.0795
21,HMRKSLGEIVFDRMERAIKSGAYSPDERLPTELDLAAEFEVSRPVIRDALKRLRERGLIYSRQGAGSFVRA,-0.25
22,HMRKTIQDFLSSNKVDIAKLLTLALEKTKEDLYKNLSYNLTNKELEKLKLLIKKREQGIPFAYLS,0.0954
23,HMRLADHVVEKLLALVQERGLQPGQKLPAERQLAEVLGVSRTSVREAIQKLVSQGVLSARRGDGTYVQS,0.0683

row,Sequence,soluble fraction (log2)
1,HMRLANGIGTVYKLSGNRRNPYIVRKTTGWEIDEESGKAKQKYITIGYAPTRAKGLEMLMDYNKNP,0.22
2,HMRLDHIFSVVERLKGVSLGAGDRLEVQKYEDLLTVYKSKNALSSEEAQTLNDILASLLKMMAKYD,-0.54
3,HMRLDSELVSARLHRFMGTNRKPDGEIVEKIAAILEGHPIETLDAFLQSLNGRKIKSYGFFPTVLRREIAN,-0.114
4,HMRLEEVSVPQRLLAAIAEEREVQIGIVDGRGGTRVLRVEPLALEGGRLRARDVESGEEFTVLIHRVLL,-0.809
5,HMRLLAESIARGLDPEGSGGLWAKEAGAEALKLMETLAAEAPHGGSFTAAAYRDLFESLVHQGEVREA,-0.335
6,HMRLLGEPLAGRLKKDVPVVTGRSTESKAIAQFFELRWSHLPDPEARTISVASGRIDFMDVGATRFSLR,0.124
7,HMRLSDSEFESIENAIKEKLENSALTADVLVKELSFDEDKIWKVIRWLEDAEKISEDEAGTLLWKPR,-0.76
8,HMRLSESLLDDIPGIGAARKRALLQSFGSVRKLRHADAEEIAAKVPGIGLNFAEKIVEALRKK,0.187
9,HMRLTTTPKTARGLTTMNRIIRAAEVEFGRKGYHYTGITDIAQRAKVASGTIYLYFTDKYSLYVHLLT,0.17
10,HMRLYTQDVAVLNRDVIQGEVITSDMVTTVNVHKRTVPTGALNLSEIPGNVAKFNIPASIPITASMVTK,-0.171
11,HMRMLLKELLIQYEVKNDKSHVEVAKEVGVSLSTYYRWLNGESLHLKKRTIDRLSEVLHYDINQVVEES,0.0267
12,HMRMLSEGAQRMLRGLAVLEEASADRLLELHQGDYPGFVRSLFALESAGLFQRNGSGTWIRR,-0.996
13,HMRMNASERQNQIVDLLSQNGVMKIMDIADHFNVSRETIRRDLIILEDDNRIKKWFGGVISAN,-0.219
14,HMRMQRYYLTDMSEKGREALPGVLDEMGYAGRYTMSDNSIAINSNMIVLSKAIKRAEDIAHNE,-0.148
15,HMRMRPNERQKRIIELLSFRRHETIGNFANEFGVSRDTIKRDIITLQEEYPIISERGYEGGISLPDGYYI,-0.0594
16,HMRMSLDEAKAVVLPIGEYKGRNMGEVLAIKPELIDFYASQKFNSSKYPYLKEAAQVILENQ,0.0219
17,HMRMSPRERKIYQFIENHPGTKSGEMAEKLGIPLPTIKRLLSDMVASKLLQKHGTGAGTNYSIEE,≥ 0.43
18,HMRMSQLSRLISILTLLKSKRLLTATELAEKYDVSIRTVYRDIRKLEEAGIPVYTIEGRGYSLMDNYT,-0.299
19,HMRNANENTLKDLPVAVPNIHVSNIEEKKDFHLIQLEYSQEFDPREDLFNFAVNSSWVILKMTPT,≥ 0.43
20,HMRNDIFDQLTEREMQILQEVAKGYRNKQIADHLFISESTVKVHMKSLLKKLQVPSRTAATVLYLERYG,-0.406
21,HMRNEFEAHSDGTRIQLNDRSKATFSVYDVQGRLIHSFQDFSGSSFNIEPKNQLLIITRETAEGVSVKKLV,-0.322
22,HMRNKTVKEVLDYIEKNSEFIFFYYSKAIDTKRIVSLSVKDQPITVILDQLFKNTDVLYEIKDRQISLKRE,-0.508
23,HMRNTETMKEIQAFVEDYFFEYHQSPSMQKVADAIGTSKSTAYYYVMEMARNGMLHYDGKTIETPHTQKS,0.285

row,Sequence,soluble fraction (log2)
1,HMRPDDPYLVIGASREMGDEELKRHYRRLVAETHPDRGIARGLPAEAIAIATRRLAAINAAWDAIERERGL,-0.158
2,HMRPDSFEAGEAEAGSRLDRLLAARLGIPRNQVQQWIGGGRVTVDAEPVRASLVVRAGMRIAWDPPPPP,0.0905
3,HMRPEKLVLKALRGAHGPLSAEEVAGRIEADGGAGLDVARVEHVLGQLERSGTVAALGGGKYLALR,0.123
4,HMRPHDDHLREQLLGIATETIARTGVEGLSLRTLATDAGTSTSAVYQLFGSRAALLDAVYLRVLE,-0.733
5,HMRPLISQTLRIDRGEGDIAGPLGVLAKEYPHLSMGSYPFQKDGIYGAHVVIRGSDPGMVEAAMDKLKAAF,-0.0188
6,HMRPLTPLEKLTPDADGKYYHIVQSGETLSWIAKLYETTAEKLQAWNNLFSSDIFPNQKLLLQVTPP,-0.123
7,HMRPPLEWGTHGEITTRTVASGYVRASARVRLWDGELQRMTATASTASDARASLQHRIAERLRFSEL,-0.0592
8,HMRPPLRAAIIDHLARDWHTVAELARLLPASGAHVSRLVVELRAVGAVDERISHPDWPGNRPTEYRLRRA,-1.05
9,HMRPTHYSGPSVIAMINNRVWFSDGSRLAPGEHHDDLEVVGLSPPWSAKVRWQGVEFDVGLFE,-0.946
10,HMRQGHLDLLRQIHALPPSTREVVYLRAFGGLSFREIGDVLGRTETWARVTFYRGKEALRKG,-0.275
11,HMRQHHMIISTKLGTPKEELAKLVSGFEDQGLRVSVITGTDYTVIGLVGDTTHLDEKRIRANPYVDNVQRV,0.0502
12,HMRQIMIIVLKSTATKEDSLLFKNKLEQEYGVKVNEWTGVESTVLGLIGDTTKIDIDYISAQDIVESVKRV,-0.494
13,HMRQKTTFFATESFELPNGEKVEEGQIFRLNDGAFNIAEQQGITRFLTSEANYGRMIAANAEVEKAKLDA,-1.05
14,HMRQLISIYNNTIGADEIDQMRNILSNSGYKEGVDFAVQTADKKSVILVRRDLAGMIQEQLSGEGLPS,-0.18
15,HMRQNPESFLNHKVKKNESLESLTKKYELTENEIIFYNPLIQKIGLKKRMILKIPIYNNQNLVTKSVD,-0.161
16,HMRQPRGQRVTVREASSLLPFLFAHLTDRSRSAVKSLLRHGQIWVNGRVTTHFDMPLRPGDTVLISHERG,-0.233
17,HMRQSQEVSGGERYRRLTAYLDTHPFITRKEYSGITGLLKNKALNDLNLLVNKGYLEAMGRGSHKVYVRPM,0.321
18,HMRQSSLRTRELLIDAARQLFARFGVEKTTMNDIAEASKRGRRTVYMYFNSKSDVFYAVVGRE,-0.116
19,HMRQVFPNPSSSQIKLASSRIGQAFSILDQQGRVVLSGKVSEEAVIALENLAKGIYVLKIGSWSETILK,0.00122
20,HMRRATLERLANNTAEKAIRYKRSLALEPMNPQERRIIHAALQEVEGVSTHSVGTEPNRKVIVVPDGV,-0.186
21,HMRRFEFSDGSSNKFWQITRDGTSLTVTFGKIGTAGQTQLKELATEAAAIAEHDKLVKEKTKKGYAEVG,-0.157
22,HMRRGFGYVRKLPSGRWQASFVGPDLARHSAPHTFETKGDAEGWLGRRQADVVAGEWRPPVP,0.321
23,HMRRISLEDWQLIESLIRRDWSPEQISLWLKKYKKIRVSHEWIYQYILKDKSKAGDLHTHLRSR,-0.419
